Measured values taken from article PMC4074165.
Read-outs that look alike come from different tables or passages of the source.

Legend:
Assay in all cases: EMSA
GST-HuR [1] = biological target: T1, GST-HuR (UniProt Q15717 1-326)
GST-HuR [2] = biological target: T1, GST-HuR; remark: listed apart in the source
GST-HuR [3] = biological target: T1, GST-HuR; remark: listed apart in the source
GST-HuR [4] = biological target: T1, GST-HuR; remark: listed apart in the source

T1 sequence (Q15717 whole entry): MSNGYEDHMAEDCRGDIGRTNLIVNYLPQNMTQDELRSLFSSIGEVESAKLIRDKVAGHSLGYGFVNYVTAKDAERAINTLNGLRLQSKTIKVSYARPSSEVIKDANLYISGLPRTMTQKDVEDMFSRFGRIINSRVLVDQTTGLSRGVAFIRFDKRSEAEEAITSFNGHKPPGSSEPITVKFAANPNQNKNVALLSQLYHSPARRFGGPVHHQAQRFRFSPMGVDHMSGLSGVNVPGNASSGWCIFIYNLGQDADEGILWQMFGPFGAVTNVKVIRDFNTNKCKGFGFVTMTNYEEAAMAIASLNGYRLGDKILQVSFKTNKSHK

| Binder | binding result (GST-HuR [1]) | other results |
| --- | --- | --- |
| P2-1 (ssRNA) RNA: GGGCCUGUUUAGUUUUCAAGGAUGGAACUCCACCCUUUACUUGGUUUUAAGU | no binding | – |
| P2-2 (ssRNA) RNA: GGGAGUAUGUAUGGAAUGUUAUGAUAGGACAUAGUAAUAGUGGUCAGAUGUGGAAA | no binding | – |
| P2-3 (ssRNA) RNA: GGGAAAUGGUAGGGAGACAAAUAUACAUGUGAAAUAAACUCAGUAUUUUAAUAAAGU | no binding | – |
| P1-1-mut1 (E1 U to C) (ssRNA) RNA: GGGGAAAAGGGUUUAAACAGCCCGAAACACCCUGUCUUCAUUUCUGUAAUAGUUA | – | binding result (GST-HuR [2]): no binding |
| P1-1-mut2 (E2 U to C) (ssRNA) RNA: GGGGAAAAGGGUUUAAACAGUUUGAAAUAUUCUGUCUUCAUUUCUGCAACAGCCA | – | binding result (GST-HuR [3]): no binding |
| P1-1-mut3 (hinge U to C) (ssRNA) RNA: GGGGAAAAGGGUUUAAACAGUUUGAAAUAUUCCGCCCCCACCCCCGUAAUAGUUA | – | binding result (GST-HuR [4]): binds |
| P1-1 (ssRNA) RNA: GGGGAAAAGGGUUUAAACAGUUUGAAAUAUUCUGUCUUCAUUUCUGUAAUAGUUA | binds | – |
| GGGAUAUCUGGCUGUCCUUUUUAUAAUGCAAAGUGAGAACUUUCCCUAC (ssRNA) [P1-2] | no binding | – |
| P1-3 (ssRNA) RNA: GGGUACUGUGUUUGAUAAAUGUUGUCCAGGUUCACUUGCCAAGAAUGUGUUGUCUAAAAUG | no binding | – |
